Laboratory results reported in patent US20240272171A1, “Methods for Identification of Exchangeable MHC Binding Peptides and Methods of Use Thereof” (PhenomeX Inc., priority 2020, published 2024).

Biological target: HLA-A*02:01 MHC Class I complex (recombinant, biotinylated) (human)
Assay: displacement of the FITC-labelled in-place peptide from 1 uM HLA-A*02:01; competitor: incoming peptide [..] at 20 uM with 10 mM GlyCha, 4 h at room temperature; FITC on streptavidin capture beads by flow cytometry

## GMGQKDSYV (modifications not checked) [EP3 … (SEQ ID NO: 1), FITC-labelled in-place peptide GMGQ{Lys(FITC)}DSYV]
  exchange efficiency: 1
